Test results reported in patent US20250339569A1 (3B PHARMACEUTICALS, published 2025).
Starred links: 1 amine or outer side, 2 acyl side, 3 side chain; linkers in the order of their positions; H or OH if unused. Positions of bridges follow the written chain, without caps; N, C: chain ends. Non-standard residues stand in square brackets, D forms with d. Groups on a side chain read outwards from the residue. *: point of attachment. DOTA = O=C(O)CN1CCN(CC(=O)O)CCN(CC(=O)*)CCN(CC(=O)O)CC1; mXylylene = c1cc(C[*:1])cc(C[*:2])c1; tBuAla = CC(C)(C)C[C@H](N)C(=O)O; Pen = CC(C)(S)[C@H](N)C(=O)O; Propanoyl(3-OH) = O=C(CCO)*; Isovaleryl = CC(C)CC(=O)*; 4Amc = not defined here; APAc = not defined here; Ac5c = NC1(C(=O)O)CCCC1; Apr = not defined here; AEEA = NCCOCCOCC(=O)O; Sar = CNCC(=O)O

B1: 3BP-3587 (peptide)
peptide: {DOTA-APAc}-VYCE[dP]DW[Ac5c]TWSC-NH2
modifications: linker 3-12 via mXylylene; reading uncertain
notes: also called DOTA-APAc-Val-Tyr-[Cys(3MeBn)-Glu-pro-Asp-Trp-Eca-Thr-Trp-Ser-Cys]-NH2
B2: 3BP-3869 (peptide)
peptide: {DOTA-AEEA}-YCE[dP]DWLTWSC-NH2
modifications: linker 2-11 via mXylylene
SMILES: CC(C)C[C@@H]1NC(=O)[C@H](Cc2c[nH]c3ccccc23)NC(=O)[C@H](CC(=O)O)NC(=O)[C@H]2CCCN2C(=O)[C@H](CCC(=O)O)NC(=O)[C@@H](NC(=O)[C@H](Cc2ccc(O)cc2)NC(=O)COCCOCCNC(=O)CN2CCN(CC(=O)O)CCN(CC(=O)O)CCN(CC(=O)O)CC2)CSCc2cccc(c2)CSC[C@@H](C(N)=O)NC(=O)[C@H](CO)NC(=O)[C@H](Cc2c[nH]c3ccccc23)NC(=O)[C@H]([C@@H](C)O)NC1=O
notes: also called DOTA-O2Oc-Tyr-[Cys(3MeBn)-Glu-pro-Asp-Trp-Leu-Thr-Trp-Ser-Cys]-NH2
B3: 3BP-3493 (peptide)
peptide: Ac-VYCE[dP]DW[tBuAla]TWA[Pen]-NH2
modifications: linker 3-12 via mXylylene
SMILES: CC(=O)N[C@H](C(=O)N[C@@H](Cc1ccc(O)cc1)C(=O)N[C@H]1CSCc2cccc(c2)CSC(C)(C)[C@@H](C(N)=O)NC(=O)[C@H](C)NC(=O)[C@H](Cc2c[nH]c3ccccc23)NC(=O)[C@H]([C@@H](C)O)NC(=O)[C@H](CC(C)(C)C)NC(=O)[C@H](Cc2c[nH]c3ccccc23)NC(=O)[C@H](CC(=O)O)NC(=O)[C@H]2CCCN2C(=O)[C@H](CCC(=O)O)NC1=O)C(C)C
notes: also called Ac-Val-Tyr-[Cys(3MeBn)-Glu-pro-Asp-Trp-Npg-Thr-Trp-Ala-Pen]-NH2
B4: 3BP-3501 (peptide)
peptide: Ac-VYCE[Sar]DW[tBuAla]TWA[Pen]-NH2
modifications: linker 3-12 via mXylylene
SMILES: CC(=O)N[C@H](C(=O)N[C@@H](Cc1ccc(O)cc1)C(=O)N[C@H]1CSCc2cccc(c2)CSC(C)(C)[C@@H](C(N)=O)NC(=O)[C@H](C)NC(=O)[C@H](Cc2c[nH]c3ccccc23)NC(=O)[C@H]([C@@H](C)O)NC(=O)[C@H](CC(C)(C)C)NC(=O)[C@H](Cc2c[nH]c3ccccc23)NC(=O)[C@H](CC(=O)O)NC(=O)CN(C)C(=O)[C@H](CCC(=O)O)NC1=O)C(C)C
notes: also called Ac-Val-Tyr-[Cys(3MeBn)-Glu-Nmg-Asp-Trp-Npg-Thr-Trp-Ala-Pen]-NH2
B5: 3BP-3569 (peptide)
peptide: Isovaleryl-YCE[dP]DWLTWSC-NH2
modifications: linker 2-11 via mXylylene
SMILES: CC(C)CC(=O)N[C@@H](Cc1ccc(O)cc1)C(=O)N[C@H]1CSCc2cccc(c2)CSC[C@@H](C(N)=O)NC(=O)[C@H](CO)NC(=O)[C@H](Cc2c[nH]c3ccccc23)NC(=O)[C@H]([C@@H](C)O)NC(=O)[C@H](CC(C)C)NC(=O)[C@H](Cc2c[nH]c3ccccc23)NC(=O)[C@H](CC(=O)O)NC(=O)[C@H]2CCCN2C(=O)[C@H](CCC(=O)O)NC1=O
notes: also called Iva-Tyr-[Cys(3MeBn)-Glu-pro-Asp-Trp-Leu-Thr-Trp-Ser-Cys]-NH2
B6: 3BP-3841 (peptide)
peptide: Ac-YCE[dP]DWLTWE([Apr-DOTA])C-NH2
modifications: linker 2-11 via 3MeBn; reading uncertain
notes: also called Ac-Tyr-[Cys(3MeBn)-Glu-pro-Asp-Trp-Leu-Thr-Trp-Glu(NH-Apr-DOTA′)-Cys]-NH2
B7: 3BP-3727 (peptide)
peptide: Isovaleryl-DCE[dP]DWLTWSC-NH2
modifications: linker 2-11 via 3MeBn
notes: also called Iva-Asp-[Cys(3MeBn)-Glu-pro-Asp-Trp-Leu-Thr-Trp-Ser-Cys]-NH2
B8: 3BP-3743 (peptide)
peptide: Isovaleryl-SCE[dP]DWLTWE([Apr-AEEA-DOTA])C-NH2
modifications: linker 2-11 via 3MeBn; reading uncertain
notes: also called Iva-Ser-[Cys(3MeBn)-Glu-pro-Asp-Trp-Leu-Thr-Trp-Glu(NH-Apr-O2Oc-DOTA′)-Cys]-NH2
B9: 3BP-3728 (peptide)
peptide: Isovaleryl-ECE[dP]DWLTWSC-NH2
modifications: linker 2-11 via 3MeBn
notes: also called Iva-Glu-[Cys(3MeBn)-Glu-pro-Asp-Trp-Leu-Thr-Trp-Ser-Cys]-NH2
B10: 3BP-3742 (peptide)
peptide: Isovaleryl-FCE[dP]DWLTWE([Apr-AEEA-DOTA])C-NH2
modifications: linker 2-11 via 3MeBn; reading uncertain
notes: also called Iva-Phe-[Cys(3MeBn)-Glu-pro-Asp-Trp-Leu-Thr-Trp-Glu(NH-Apr-O2Oc-DOTA′)-Cys]-NH2
B11: 3BP-3842 (peptide)
peptide: {Propanoyl(3-OH)}-YCE[dP]DWLTWE([Apr-DOTA])C-NH2
modifications: linker 2-11 via mXylylene; reading uncertain
notes: also called 3OHPr-Tyr-[Cys(3MeBn)-Glu-pro-Asp-Trp-Leu-Thr-Trp-Glu(NH-Apr-DOTA′)-Cys]-NH2
B12: 3BP-3740 (peptide)
peptide: Isovaleryl-YCE[dP]DWLTWE([Apr-AEEA-DOTA])C-NH2
modifications: linker 2-11 via 3MeBn; reading uncertain
notes: also called Iva-Tyr-[Cys(3MeBn)-Glu-pro-Asp-Trp-Leu-Thr-Trp-Glu(NH-Apr-O2Oc-DOTA′)-Cys]-NH2
B13: 3BP-3730 (peptide)
peptide: {Propanoyl(3-OH)}-YCE[dP]DWLTWSC-NH2
modifications: linker 2-11 via 3MeBn
notes: also called 3OHPr-Tyr-[Cys(3MeBn)-Glu-pro-Asp-Trp-Leu-Thr-Trp-Ser-Cys]-NH2
B14: 3BP-3868 (peptide)
peptide: {DOTA-4Amc}-YCE[dP]DWLTWSC-NH2
modifications: linker 2-11 via mXylylene; reading uncertain
notes: also called DOTA-4Amc-Tyr-[Cys(3MeBn)-Glu-pro-Asp-Trp-Leu-Thr-Trp-Ser-Cys]-NH2

The binders below were run against human carbonic anhydrase 9 (CAIX) (human, UniProt Q16790 38-459) (assay: FACS competition on HT-29 cells against tracer 3BP-2776; pIC50 category A = pIC50 >8.0).

pIC50, > 8 pic50:
B1
B2
B3
B4
B5
B6
B7
B8
B9
B10
B11
B12
B13
B14
